Entries after “also recorded” stand apart in the source; their conditions may differ.
B1: Dkk1: Wnt inhibitor; murine Dkk1 bearing N-terminal HA-tag and C-terminal FLAG and 6×His tags (protein, UniProt O54908 32-272, looked up)
Dickkopf-related protein 1: TLNSVLINSNAIKNLPPPLGGAGGQPGSAVSVAPGVLYEGGNKYQTLDNYQPYPCAEDEECGSDEYCSSPSRGAAGVGGVQICLACRKRRKRCMRHAMCCPGNYCKNGICMPSDHSHFPRGEIEESIIENLGNDHNAAAGDGYPRRTTLTSKIYHTKGQEGSVCLRSSDCAAGLCCARHFWSKICKPVLKEGQVCTKHKRKGSHGLEIFQRCYCGEGLACRIQKDHHQASNSSRLHTCQRH
modifications: N-terminal HA tag, C-terminal FLAG and 6xHis tags
notes: murine Dkk1 bearing N-terminal HA-tag and C-terminal FLAG and 6×His tags
B2: RSpo1: secreted glycoprotein, Wnt agonist, Genbank Accession NP_001033722 (protein, UniProt Q2MKA7 21-263, looked up)
R-spondin-1: SRGIKGKRQRRISAEGSQACAKGCELCSEVNGCLKCSPKLFILLERNDIRQVGVCLPSCPPGYFDARNPDMNKCIKCKIEHCEACFSHNFCTKCKEGLYLHKGRCYPACPEGSSAANGTMECSSPAQCEMSEWSPWGPCSKKQQLCGFRRGSEERTRRVLHAPVGDHAACSDTKETRRCTVRRVPCPEGQKRRKGGQGRRENANRNLARKESKEAGAGSRRRKGQQQQQQQGTVGPLTSAGPA

Columns and labels:
[1] = test system: intestinal explants; assay: Growth of intestinal explant (sphere) cultures under Wnt modulation; assay type: cell-based, mouse; settings: for explant growth: intestinal explant culture
Source text: Small intestine or colon of C57Bl/6J mice is procured under sterile conditions, minced and mixed with type I collagen gel. Subsequently, these explant containing gels are poured onto transwell cell culture inserts with a collagen gel layer. Transwell cell culture inserts are available commercially from a number if resources e.g. Corning, Signaaldrich. These cell culture inserts are placed into secondary outer dishes containing HAMs F-12 with 20% FCS. Proliferation and histology of the explant is depicted in FIG. 4A-4D. Electron micrographs of the intestinal explants in FIG. 5A-5E reveal that the ultrastructure of the intestinal epithelium is preserved.
Before preparing the tissue, an inner container with a gel as bottom layer was made. The procedure described herein used Cellmatrix type I-A (Nitta Gelatin Inc.) e.g. collagen gel. The inner dish has permeable membrane bottom. Millicell culture plate inserts (Millicell-CM, Millipore Co.) or Falcon cell culture inserts (BD Co.) was used as the inner dish. 1 ml of collagen gel solution was poured into a 30-mm diameter inner dish in combination with 60 mm diameter outer dish and 2 ml of culture media. 0.3 ml collagen gel solution was poured into 10-mm diameter inner dish in combination with a 24-well outer dish and 0.5 ml of culture media.
Small or large intestine was removed from mouse (fetus, neonate, juvenile, or adult) aseptically. The removed tissue was immediately immersed in ice-cold PBS or other culture media/tissue preservative solution such as Ham's F12, MEM, etc. The small intestine or colon are opened lengthwise and washed in ice-cold PBS to remove all luminal contents. The washed tissue was minced with scissors to a size less than about 0.1 mm^3. The minced tissue was mixed in ice-cold collagen gel solution and poured onto the prepared inner dish. The inner dish was placed in an outer dish. The gel was solidified at 37° C. for 30 min. After solidification of the gel, culture media was poured into outer dish. Ham's F12 supplemented with 20% fetal calf serum and 50 μg/ml gentamicin was used as culture medium. The culture can be sustained for over a year at 37° C. in a humidified atmosphere of 5% CO2 in air. Medium was changed about every 7 days.
Three-Dimensional Explant Culture System. The mouse small and large intestine (optimally postnatal days 0-2) was opened lengthwise and washed in PBS to remove all luminal contents. A 1 cm segment was minced immediately and extensively on ice with iris scissors. The minced tissues were embedded in a three-dimensional collagen gel using a double-dish culture system. A 1 ml collagen gel solution (Nitta Gelatin Co.) was poured into a 30-mm dish (Millicell-CM, Millipore Co.), the inner dish, with a nitrocellulose bottom to form an acellular layer. Next, a 1 ml collagen gel solution containing a total of 0.1 g minced tissues was placed on the acellular layer in the dish. This inner dish was placed into a 90-mm outer dish containing 10 ml Ham's F12 supplemented with 20% FCS and 50 μg/ml gentamicin. The culture assembly was carried out for 7-365 days at 37 C in a humidified atmosphere of 5% CO2 in air, and the medium was changed every 7 days. Where appropriate, murine RSpo1-Fc, Dkk1 or DBZ (Calbiochem) were included in the outer dish medium at 500 ng/ml, 0.5-50 μg/ml and 10 μM respectively with change of medium every 1-2 days.
This culture system maintains the cultured cells embedded in the collagen gel under an air-liquid interface environment. Before preparing the tissue, an inner dish with collagen gel bottom layer should be made. The following procedure is done using Cellmatrix type I-A (Nitta Gelatin Inc.) as a premixed type I collagen gel, however, other products are able to use as an extracellular matrix, such as matrigel. The inner dish should have permeable and/or pored membrane bottom, such as a cell culture insert. […]

[2] = test system: intestinal epithelial proliferation; settings: cited from earlier work

Molecule	effect on epithelial layer of pre-established spheres ([1]; d28 pre-established small or large intestine spheres, treated additional 5d)	explant growth [1]	long-term regrowth after transient treatment ([1]; jejunal explants, 50 μg/ml for 7 days, then 35d without Dkk1)	growth when added to culture media at the time of plating ([1]; recombinant protein at plating)	intestinal proliferation in vivo [2]	explant growth ([1]; listed as R-Spondin1)
B1	rapid degeneration of the epithelial layer	inhibited; also recorded: strong inhibition of explant growth	lack of long-term repopulation; also recorded: sufficient to ablate culture growth; also recorded: No growth of intestinal spheres was observed	dose-dependent growth inhibition	rapid cessation of intestinal epithelial proliferation and crypt loss	
B2		stimulation; also recorded: markedly stimulated; also recorded: increased growth			strongly augments intestinal proliferation in vivo; also recorded: strongly induce intestinal proliferation in vivo	promoted

From patent US10704026B2, “Ex vivo culture, proliferation and expansion of intestinal epithelium” (The Board of Trustees of the Leland Stanford Junior …, priority 2008, dated 2020)
